Patent US20140010817A1 (Daiichi Sankyo, published 2014)

How the values were obtained:
[1] = molecular target: T1, RX protein purified from the culture supernatant of ADSF cells (murine mammary tumor virus (MMTV) …, UniProt P03374 99-474; P03374 475-651); assay: SPR (ProteOn XPR36) by the method of Example 4: antibody immobilized, RX protein as analyte
T1 construct: also called purified RX protein; ADSF cell-derived RX protein
From the text: (§1) Each antibody was immobilized on a sensor chip (Sensor Chip GLM; Bio-Rad Laboratories, Inc.) by the amine coupling method. The chip was blocked by the addition of 1 M ethanolamine hydrochloride (pH 8.5). ProteOn PBS/Tween, pH 7.4 (PBS, pH 7.4, 0.005% Tween 20) was used as a running buffer solution. The purified RX protein was serially diluted and interacted as an analyte with the immobilized monoclonal antibody to determine the binding affinity. The association rate constant ka and the dissociation rate constant kd were calculated by kinetics analysis using ProteOn Manager™.

[2] = molecular target: T1, RX protein purified from the culture …; assay: SPR (ProteOn XPR36), antibody immobilized by amine coupling, RX protein as analyte
From the text: as §1

[3] = molecular target: T1, RX protein purified from the culture …; assay: SPR (ProteOn XPR36), antibody immobilised by amine coupling on a GLM chip, purified RX protein as analyte
From the text: as §1

[4] = molecular target: T1, RX protein purified from the culture …; assay: SPR

B1: Monoclonal Antibody 4 (MAb4) (antibody, V domains shown)
VH: QVKLEESGAELVKPGASVKMSCKASGYTFTIYNIHWVKQTPRQGLEWIGTIFPVNGDTSYNQRFKGKATLTADKSSNTAYMQLSGLTSEDSALYYCARSTTARAWFPYWGQGTLVTVSA
VL: HIVITQTQKFMSTSVGDRVSVTCKASQNVGSNVAWYQQKPGQSPKVLIYSASYRYSGVPDRFTGSGSGTDFTLTISNVQSEDLADFFCQQYNTSPFTFGGGTKLEIK
**Q.** With B1 as the binder, how does the Kd [1] read?
**A.** Its Kd is 140 pM.

B2: Monoclonal Antibody 2 (MAb2) (antibody, V domains shown)
VH: EVKLQESGPELKKPGETVKISCKASGYTFRDYPIHWVKQAPGKGLKWMGWINTETGEPTYADDFKGRFAFSLETSANTTYLQINNLKNEDTATYFCTPRFTYWGQGTLVTVSS
VL: DIVMTQTPSSLAVSVGEKVTMSCKSSQNLLYSGNQKNYLAWFQQKPGQSPKLLIYWASTRESGVPDRFTGSGSGTDFTLTLSSVKAEDLAVYYCQQSYRYPYTSGGGTKLEIKR
**Q.** How did the Kd [2] turn out when B2 was run?
**A.** The Kd was about 100 pM.

**Q.** What about the Kd [3] of the same binder?
**A.** The Kd was 260 pM.

**Q.** What about the koff [3] of the same binder?
**A.** Its koff is 0.00021 s⁻¹.

**Q.** What about the kon [3] of the same binder?
**A.** The kon was 810000 M⁻¹ s⁻¹.

B3: chimerized MAb1 (rat-human chimeric antibody) (antibody, V domains shown)
VH: EVQLVESGGGLVQPGRSLKLSCVGSGFTFSDYYMAWVRQAPKKGLEWVASISYEGSNTNFGDSVKGRFTISRDSAKSTLYLQMNSLRSEDTATYYCARWAQTGYYFDYWGQGVMVTVSS
VL: DIQMTQSPASLSASLGETVTIECLASEDIYSNLAWYQQKPGKSPQLLIYYANSLNDGVPSRFSGSGSGTQFSLKINSLQSEDVSIYFCQQNYDSPYTFGAGAKLELKRA
**Q.** Which Kd [4] does the source give for B3 here?
**A.** Its Kd is 220 pM.
